In the Human Domainome abundance scans (Beltran et al. 2025) one finds abundance fitness data, which are given here for 167 variants.

± gives the uncertainty stated by the source.

The chains are these.
B1: Glucocorticoid receptor, residues 419 to 494; numbered along this chain, P04150 (parent)
chain: KLCLVCSDEASGCHYGVLTCGSCKVFFKRAVEGQHNYLCAGRNDCIIDKIRRKNCPACRYRKCLQAGMNLEARKTK

The variants in the data set derive from B1. Kind of data set: abundance fitness (aPCA) (normalised: wild type 0, dead -1); higher = more abundant; growth selection in yeast, the domain comes from the species named. The note with it: Homo sapiens.
For K62T, the abundance fitness is -0.047 ± 0.042.
To K62Q belongs -0.066 ± 0.049; to K62G, -0.105 ± 0.033; to K62E, -0.2 ± 0.049.
Take K62A: the abundance fitness was -0.015 ± 0.034.
Consider N36M, for which the abundance fitness amounted to 0.008 ± 0.046.
To N36K belongs 0.038 ± 0.049; to N36H, -0.042 ± 0.067; to N36C, -0.133 ± 0.066.
To R29E belongs 0.033 ± 0.05.
For R29W, the abundance fitness was -0.095 ± 0.046.
To R29N belongs -0.007 ± 0.083.
On to G33D, for which the abundance fitness was found to be 0.05 ± 0.066.
To G33K belongs 0.034 ± 0.06.
In the case of G33S, the abundance fitness was -0.045 ± 0.04.
In the case of G33H it was -0.006 ± 0.067; in that of G33I, -0.121 ± 0.095.
Consider V17L, for which the abundance fitness was -0.16 ± 0.038.
In the case of V17R, the abundance fitness was -0.141 ± 0.049.
To V17I belongs 0.129 ± 0.095; to C39V, -1 ± 0.13; to C39N, -0.603 ± 0.2.
In the case of C39Q it was -0.586 ± 0.11; in that of C39P, -0.585 ± 0.11.
In the case of C39G it was -0.716 ± 0.059; in that of C39R, -0.976 ± 0.1; in that of C39M, -0.998 ± 0.18.
For the variant K49T, the abundance fitness was -0.001 ± 0.051.
To K49L belongs -0.054 ± 0.035.
To K49M belongs -0.021 ± 0.051; to K49E, -0.097 ± 0.039.
In the case of K49N it was -0.06 ± 0.12; in that of K49C, 0.045 ± 0.054.
As to S11Y, the abundance fitness was -0.174 ± 0.089.
In the case of S11N it was 0.018 ± 0.07; in that of S11D, 0.021 ± 0.049; in that of S11L, 0.033 ± 0.036.
To S11K belongs -0.005 ± 0.045; to A10D, -0.251 ± 0.12.
To A10K belongs -0.408 ± 0.092; to A10L, -0.066 ± 0.036; to H35F, 0.013 ± 0.078.
With H35Q, the abundance fitness was -0.044 ± 0.048.
To H35K belongs -0.002 ± 0.054; to H35A, 0.018 ± 0.04.
To H35G belongs 0.024 ± 0.032; to H35M, 0.018 ± 0.047.
In the case of H35P it was 0.003 ± 0.046; in that of H35V, -0.027 ± 0.033; in that of R52C, 0.051 ± 0.15.
For R52I, the abundance fitness was -0.093 ± 0.11.
Regarding V31K, the abundance fitness was -0.078 ± 0.056.
In the case of V31I, the abundance fitness came to 0.037 ± 0.051.
On to V31S, for which the abundance fitness came to 0.037 ± 0.037.
To V31L belongs -0.036 ± 0.033; to V31W, -0.07 ± 0.044.
Take C20A: the abundance fitness is -0.837 ± 0.12.
In the case of C20F it was -0.717 ± 0.32; in that of C20Y, -0.782 ± 0.23.
As for C20P, the abundance fitness is -0.594 ± 0.12.
For L2S, the abundance fitness is -0.023 ± 0.037.
In the case of L2G it was -0.017 ± 0.033; in that of L2K, 0.063 ± 0.045.
Consider P56V, for which the abundance fitness was -0.064 ± 0.032.
Regarding P56H, the abundance fitness is -0.111 ± 0.062.
To P56I belongs -0.19 ± 0.072; to P56F, -0.003 ± 0.06; to A66Q, -0.037 ± 0.059.
Regarding A66W, the abundance fitness is -0.227 ± 0.05.
Consider A66E, for which the abundance fitness is -0.036 ± 0.048.
To A66Y belongs -0.014 ± 0.065.
In the case of A66N it was -0.02 ± 0.075; in that of L38M, 0.02 ± 0.049; in that of L38G, -0.059 ± 0.029.
In the case of L38P it was -0.155 ± 0.047; in that of L38Y, -0.035 ± 0.077; in that of L38C, -0.03 ± 0.056.
Turning to G41V, the abundance fitness was -0.051 ± 0.035.
In the case of G41E it was -0.043 ± 0.045.
In the case of M68S it was -0.771 ± 0.092; in that of M68D, -0.768 ± 0.18.
In the case of M68N it was -0.62 ± 0.45; in that of M68A, -0.377 ± 0.06.
In the case of M68K, the abundance fitness was -0.632 ± 0.16.
Take M68V: the abundance fitness is -0.472 ± 0.055.
In the case of M68L it was -0.133 ± 0.035; in that of M68G, -0.574 ± 0.055.
To F27P belongs -0.695 ± 0.15; to F27R, -0.678 ± 0.053; to F27M, -0.144 ± 0.052.
In the case of F27I it was -0.26 ± 0.08; in that of F27E, -1.01 ± 0.16.
With E32D, the abundance fitness was -0.015 ± 0.07.
For the variant E32F, the abundance fitness was -0.192 ± 0.074.
To E32S belongs -0.049 ± 0.034.
To K53W belongs -0.075 ± 0.039; to K53M, 0.001 ± 0.044; to K53V, -0.037 ± 0.035.
In the case of R51T it was -0.016 ± 0.043; in that of R51V, -0.068 ± 0.036; in that of R51C, -0.215 ± 0.068.
For the variant N69H, the abundance fitness was 0.028 ± 0.067.
In the case of N69T it was 0.011 ± 0.048; in that of N69P, -0.252 ± 0.051; in that of A30V, 0.026 ± 0.037.
For the variant A30S, the abundance fitness is -0.08 ± 0.042.
With A30F, the abundance fitness was -0.142 ± 0.099.
To A30H belongs -0.292 ± 0.09; to A30W, -0.183 ± 0.042; to C58E, -0.633 ± 0.091.
In the case of C58H it was -0.701 ± 0.18.
In the case of C58D it was -0.872 ± 0.42.
As to C58L, the abundance fitness is -0.789 ± 0.084.
To C58S belongs -0.697 ± 0.079.
To R61F belongs -0.13 ± 0.08.
To R61H belongs -0.079 ± 0.077; to R61P, -0.854 ± 0.19.
Consider R61S, for which the abundance fitness is -0.004 ± 0.038.
To R61G belongs -0.063 ± 0.031; to R61C, -0.112 ± 0.058.
In the case of R61E it was 0.026 ± 0.046; in that of R61Y, -0.089 ± 0.11.
Take K24Y: the abundance fitness came out at 0.017 ± 0.06.
To K24E belongs 0.011 ± 0.079; to K24H, -0.026 ± 0.069.
In the case of K24A it was -0.019 ± 0.05; in that of K24F, -0.092 ± 0.066; in that of K24N, -0.028 ± 0.061.
For K76S, the abundance fitness worked out at 0.099 ± 0.052.
K76P: the abundance fitness came to 0.004 ± 0.073.
To K76M belongs -0.023 ± 0.1; to K76H, -0.096 ± 0.27.
To K76F belongs 0.006 ± 0.11; to K76V, -0.001 ± 0.047; to K76E, 0.105 ± 0.059.
In the case of K76C it was 0.132 ± 0.14; in that of Y37D, -0.144 ± 0.068.
Turning to Y37F, the abundance fitness worked out at 0.011 ± 0.07.
R73N: the abundance fitness is -0.133 ± 0.084.
To R73L belongs -0.04 ± 0.033; to R73Q, -0.061 ± 0.058.
To R73P belongs -0.007 ± 0.048.
To I47F belongs -0.449 ± 0.11.
With I47A, the abundance fitness was -0.368 ± 0.043.
In the case of I47Q it was -0.183 ± 0.056; in that of I47K, -0.267 ± 0.064; in that of V25Y, -0.129 ± 0.098.
For the variant V25C, the abundance fitness was found to be 0.043 ± 0.063.
To V25A belongs 0.045 ± 0.056; to V25H, 0.06 ± 0.069; to R42D, 0.06 ± 0.059.
In the case of R42H it was -0.011 ± 0.074; in that of R42I, -0.062 ± 0.089.
On to R42T, for which the abundance fitness is 0.036 ± 0.043.
In the case of R42A it was 0.01 ± 0.035; in that of R42E, 0.011 ± 0.04; in that of L64G, -0.273 ± 0.036.
Regarding L64T, the abundance fitness is -0.074 ± 0.04.
In the case of L64S, the abundance fitness is -0.082 ± 0.04.
To L64C belongs 0.025 ± 0.052; to L64Y, -0.161 ± 0.061; to N43S, -0.044 ± 0.036.
In the case of N43E it was 0.011 ± 0.044; in that of N43W, -0.056 ± 0.039.
In the case of N43V it was -0.285 ± 0.044.
For the variant N54D, the abundance fitness was -0.015 ± 0.061.
As for N54M, the abundance fitness is -0.064 ± 0.049.
